Experimental data reported in publication PMC4620603.

Molecular target: pyrene-labeled tropomyosin from bovine cardiac tissue (bovine) (UniProt Q5KR49)
Assay: other fluorescence titration; troponin complex binding to 100 nM pyrene-tropomyosin, 23 °C, 20 mM Hepes pH 7.5, 100 mM KCl, 2 mM MgCl2, 1 mM DTT

Kd | Substance
48 nM | human adult cardiac troponin complex with R205Q troponin T (from UniProt P45379-6 1-288; P19429 1-210; P02585 1-160)
68 nM | human adult cardiac troponin complex, wild type (troponin T, troponin I, troponin C) (from UniProt P45379-6 1-288; P19429 1-210; P02585 1-160)
